Patent US20240425589A1, “CYTOTOXICITY-INDUCING THERAPEUTIC AGENT FOR USE IN TREATMENT OF CANCER” (CHUGAI SEIYAKU KABUSHIKI KAISHA, priority 2021, published 2024)

Tests used:
[1] = target: T1, recombinant human CD3 (human CD3eg linker) (Homo sapiens, UniProt P07766+P09693); experiment: Biacore T200 SPR affinity of Dual-Fab antibodies to human CD3; assay type: binding; settings: 25 degrees C, pH 7.4
T1 construct: made in house; host or cells: FreeStyle293F
From the text: The gamma and epsilon subunits of the human CD3 complex (human CD3eg linker) were linked by a 29-mer linker and a Flag-tag was fused to the C-terminal end of the gamma subunit (SEQ ID NO: 169). This construct was expressed transiently using FreeStyle293F cell line (Thermo Fisher). Conditioned media expressing human CD3eg linker was concentrated using a column packed with Q HP resins (GE healthcare) and then applied to FLAG-tag affinity chromatography. Fractions containing human CD3eg linker were collected and subsequently subjected to a Superdex 200 gel filtration column (GE healthcare) equilibrated with 1×D-PBS. Fractions containing human CD3eg linker were then pooled and stored at −80 degrees C.
(§1) Binding affinity of Dual-Fab antibodies (Dual-Ig) to human CD3 were assessed at 25 degrees C. using Biacore T200 instrument (GE Healthcare). Anti-human Fc (GE Healthcare) was immobilized onto all flow cells of a CM4 sensor chip using amine coupling kit (GE Healthcare). Antibodies were captured onto the anti-Fc sensor surfaces, then recombinant human CD3 or CD137 was injected over the flow cell. All antibodies and analytes were prepared in ACES pH 7.4 containing 20 mM ACES, 150 mM NaCl, 0.05% Tween 20, and 0.005% NaN3. Sensor surface was regenerated each cycle with 3M MgCl2. Binding affinity were determined by processing and fitting the data to 1:1 binding model using Biacore T200 Evaluation software, version 2.0 (GE Healthcare). CD137 binding affinity assay was conducted in same condition except assay temperature was set at 37 degrees C.

recombinant human CD137 = target: T2, recombinant human CD137 (Homo sapiens, UniProt Q07011); experiment: Biacore T200 SPR affinity of Dual-Fab antibodies to human CD137; assay type: binding; settings: 37 degrees C, pH 7.4
T2 construct: made in house; host or cells: FreeStyle293F
From the text: Human CD137 extracellular domain (ECD) (SEQ ID NO: 179) with hexahistidine (His-tag) and biotin acceptor peptide (BAP) on its C-terminus was expressed transiently using FreeStyle293F cell line (Thermo Fisher). Conditioned media expressing human CD137 ECD was applied to a HisTrap HP column (GE healthcare) and eluted with buffer containing imidazole (Nacalai). Fractions containing human CD137 ECD were collected and subsequently subjected to a Superdex 200 gel filtration column (GE healthcare) equilibrated with 1×D-PBS. Fractions containing human CD137 ECD were then pooled and stored at −80 degrees C.
as §1

[2] = Single dose toxicology study; assay type: in vivo, cynomolgus monkey; settings: cynomolgus monkey, in vivo, iv
Procedure: Potential toxicity of PPU4135 antibody (anti-CLDN6/Dual-Fab tri-specific antibody) was evaluated in toxicity study using cynomolgus monkeys compared with CS3348 antibody (anti-CLDN6/CD3 bispecific antibody). Because both PPU4135 and CS3348 antibodies cross-reacted with their antigens of cynomolgus monkey, cynomolgus monkey was selected as the animal species for evaluations in the in vivo toxicology studies. Since toxicological findings seemed to be more sensitive in male than female animals in the toxicity study with CS3348 (FIG. 14), 2 males were used for evaluation of the PPU4135-mediated toxicity. In these studies, dose levels were set at 100 (for CS3348) or 90 (for PPU4135) micro g/kg, which were approximately 2.57-fold efficacious concentration producing 80% of the maximal response.

[3] = system: hCLDN6/BaF, hCLDN3/BaF, hCLDN4/BaF, and hCLDN9/BaF; experiment: FACS analysis of specificity against CLDN family; assay type: binding, human; settings: 15 micro g/ml, compared with 6PHU3/TR01
Procedure: Amino acid sequences are highly conserved among CLDN3, CLDN4, CLDN6 and CLDN9. Thus we examined CLDN6 binding specificity of CLDN6 binding Fv comprising 65HQ39E as VH and 54L0532Q38K as VL, by FACS analysis. hCLDN6/BaF, hCLDN3/BaF, hCLDN4/BaF, and hCLDN9/BaF were incubated with an anti-CLDN6/CD3 bispecific antibody (CS2961) comprising the CLDN6 binding Fv CLDN6AE25EK and a CD3 binding Fv (heavy chain variable region SEQ ID NO: 184, light chain variable region SEQ ID NO: 185) at 15 micro g/ml. Another anti-CLDN6/CD3 bispecific antibody (6PHU3/TR01) and an antibody without binding capability to CLDN6 (KLH/TR01) were used as a staining control. 6PHU3/TR01 and KLH/TR01 comprise the same CD3 binding Fv (heavy chain variable region SEQ ID No: 188, light chain variable region SEQ ID NO: 189). The CLDN6 binding Fv of 6PHU3/TR01 comprises a heavy chain variable region shown in SEQ ID NO: 190 and a light chain variable region shown in SEQ ID NO: 191. KLH/TR01 comprises a KLH binding Fv (heavy chain variable region SEQ ID NO: 186, light chain variable region SEQ ID NO: 187).
Binding of each antibody was detected with Alexa Fluor 488-conjugated anti human IgG (Invitrogen). Dead cells were separated by eFlour 780 (Invitrogen) staining. […]

T1 sequence (P07766+P09693 fused): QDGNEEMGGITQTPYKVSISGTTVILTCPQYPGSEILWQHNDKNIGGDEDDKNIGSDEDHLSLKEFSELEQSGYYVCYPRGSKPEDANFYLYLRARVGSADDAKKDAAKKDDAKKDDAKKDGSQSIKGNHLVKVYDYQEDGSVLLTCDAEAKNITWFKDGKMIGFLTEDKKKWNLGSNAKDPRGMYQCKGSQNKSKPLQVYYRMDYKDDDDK
T2 sequence (Q07011 with tags, fused parts or gaps): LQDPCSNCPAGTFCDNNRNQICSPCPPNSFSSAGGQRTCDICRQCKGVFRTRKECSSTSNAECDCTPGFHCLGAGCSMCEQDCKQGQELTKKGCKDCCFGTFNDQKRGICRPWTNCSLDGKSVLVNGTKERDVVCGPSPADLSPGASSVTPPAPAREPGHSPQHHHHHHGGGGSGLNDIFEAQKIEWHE

| Molecule | CD3 Koff [1] [s⁻¹] | CD3 Kon [1] [M⁻¹ s⁻¹] | CD137 Koff (recombinant human CD137) [s⁻¹] | CD137 Kon (recombinant human CD137) [M⁻¹ s⁻¹] | AST, ALT, GLDH, ALP, TBIL, GGT, TBA and CRP [2] | specificity towards CLDN6 among CLDN3, CLDN4, CLDN6, CLDN9 [3] | Kd (recombinant human CD137) [µM] |
| --- | --- | --- | --- | --- | --- | --- | --- |
| H2591L0581: affinity matured Dual-Fab variant, VH SEQ ID NO 101, VL SEQ ID NO 143 (antibody, V domains shown) VH: QVQLVESGGGLVQPGRSLRLSCAASGFKFSNVWFHWVRQAPGKGLEWVAQIKDYYNAYAGYYHPSVKGRFTISRDDSKNSIYLQMNSLKTEDTAVYYCHYVHYAAASTLLPAEGVDAWGQGTTVTVSS VL: DIVMTQSPLSLPVTPGEPASISCQPSQEVVHMNRNTYLHWYQQKPGQAPRLLIYKVSNRFPGVPDRFSGSGSGTDFTLKISRVEAEDVGVYYCAQGTSHPFTFGQGTKLEIK | 0.0535 | 102000 | 0.000742 | 20400 |  |  |  |
| H1550L0918: affinity matured Dual-Fab variant, VH SEQ ID NO 92, VL SEQ ID NO 144 (antibody, V domains shown) VH: QVQLVESGGGLVQPGRSLRLSCAASGFKFSNVWMHWVRQAPGKGLEWVAQIKDKYNAYAAYYAPSVKGRFTISRDDSKNSIYLQMNSLKTEDTAVYYCHYIHYASASTLLPAFGVDAWGQGTTVTVSS VL: DIVMTQSPLSLPVTPGEPASISCQPSQEVVHMNNVVYLHWYQQKPGQAPRLLIYKVSNRFPGVPDRFSGSGSGTDFTLKISRVEAEDVGVYYCAQGTSHPFTFGQGTKLEIK | 0.00316 | 72000 | 0.00579 | 10900 |  |  |  |
| H2594L0581: affinity matured Dual-Fab variant, VH SEQ ID NO 102, VL SEQ ID NO 143 (antibody, V domains shown) VH: QVQLVESGGGLVQPGRSLRLSCAASGFKFSNVWFHWVRQAPGKGLEWVAQIKDYYNAYAGYYHPSVKGRFTISRDDSKNSIYLQMNSLKTEDTAVYYCHYVHYAAASQLLPAEGVDAWGQGTTVTVSS VL: DIVMTQSPLSLPVTPGEPASISCQPSQEVVHMNRNTYLHWYQQKPGQAPRLLIYKVSNRFPGVPDRFSGSGSGTDFTLKISRVEAEDVGVYYCAQGTSHPFTFGQGTKLEIK | 0.0584 | 98300 | 0.00163 | 20900 |  |  |  |
| CS3348: anti-CLDN6/CD3 bispecific antibody, chains SEQ ID NOs 193, 195, 194, 192; used as control (protein) chain 1: QVQLVESGGGVVQPGGSLRLSCAASGFTFSSYTMSWVREAPGQGLEWMGTISSGGGRTYYPDSVKGRFTISRDNSKNTLYLQMNSLRDEDTAVYYCARGDYRYDGFAYWGEGTLVTVSSASTKGPSVFPLAPSSKSTSGGTAALGCLVEDYFPEPVTVSWNSGALTSGVHTFPAVLESSGLYSLSSVVTVPSSSLGTQTYICNVNHKPSNTKVDERVEPKSCDKTHTCPPCPAPEAAGGPSVFLFPPKPKDTLMISRTPEVTCVVVDVSHEDPEVKFNWYVDGVEVHNAKTKPREEQYASTYRVVSVLTVLHQDWLNGKEYKCKVSNKALPAPIEKTISKAKGQPREPQVYTLPPSREEMTKNQVSLTCLVKGFYPSDIAVEWESNGQPENNYKTTPPVLDSDGSFFLYSKLTVDKSRWQQGNVFSCSVMHEALHNHYTQESLSLSP chain 2: DIQMTQSPSSLSASVGDRVTITCRASYNIDSYLAWYQKKPGKAPELLIYYSTLLVDGVPDRFSGSRSGTDFTLTISSLQPEDFATYYCQHYYSIPYTFGQGTKVEIERTVAAPSVFIFPPSDKQLKSGTAKVVCLLNNFYPREAKVQWKVDNALQSGNSKESVTEQDSKDSTYSLSSTLTLSKADYEKHKVYACEVTHQGLSSPVTKSFNRGEC chain 3: QVQLVESGGGVVQPGGSLRLSCAASGFTFSNAWMHWVRKAPGKGLEWVAQIKDKSQNYATYVAESVKGRFTISRADSKNSIYLQMNSLKTEDTAVYYCRYVHYAAGYGVDIWGQGTTVTVSSASTKGPSVFPLAPSSKSTSGGTAALGCLVKDYFPEPVTVSWNSGALTSGVHTFPAVLKSSGLYSLSSVVTVPSSSLGTQTYICNVNHKPSNTKVDKRVEPKSCDKTHTCPPCPAPEAAGGPSVFLFPPKPKDTLMISRTPEVTCVVVDVSHEDPEVKFNWYVDGVEVHNAKTKPREEQYASTYRVVSVLTVLHQDWLNGKEYKCKVSNKALPAPIEKTISKAKGQPREPQVYTLPPSRKEMTKNQVSLTCLVKGFYPSDIAVEWESNGQPENNYKTTPPVLDSDGSFFLYSKLTVDKSRWQQGNVFSCSVMHEALHNHYTQKSLSLSP chain 4: DIVMTQSPLSLPVTPGEPASISCRSSQPLVHSNRNTYLHWYQEKPGQAPRLLIYKVSNRFSGVPDRFSGSGSGTDFTLKISRVEAEDVGVYYCGQGTQVPYTFGQGTKLEIKRTVAAPSVFIFPPSDEQLKSGTAEVVCLLNNFYPREAKVQWKVDNALQSGNSEESVTEQDSKDSTYSLSSTLELSKADYEKHKVYACEVTHQGLSSPVTKSFNRGEC |  |  |  |  | Increased |  |  |
| CS2961: anti-CLDN6/CD3 bispecific antibody comprising CLDN6 binding Fv CLDN6AE25EK and a CD3 binding Fv (SEQ ID NOs 184, 185) (antibody, V domains shown, CLDN6 binding Fv CLDN6AE25EK lacks SEQ ID) VH: QVQLVESGGGVVQPGGSLRLSCAASGFTFSNAWMHWVRKAPGKGLEWVAQIKDKSQNYATYVAESVKGRFTISRADSKNSIYLQMNSLKTEDTAVYYCRYVHYAAGYGVDIWGQGTTVTVSS VL: DIVMTQSPLSLPVTPGEPASISCRSSQPLVHSNRNTYLHWYQEKPGQAPRLLIYKVSNRFSGVPDRFSGSGSGTDFTLKISRVEAEDVGVYYCGQGTQVPYTFGQGTKLEIK |  |  |  |  |  | better specificity towards CLDN6 |  |
| H183L072: parental Dual-Fab (CD3/CD137), VH SEQ ID NO 90, VL SEQ ID NO 142 (antibody, V domains shown) VH: QVQLVESGGGLVQPGRSLRLSCAASGFTFSNAWMHWVRQAPGKGLEWVAQIKDKGNAYAAYYAPSVKGRFTISRDDSKNSIYLQMNSLKTEDTAVYYCHYVHYASASTVLPAFGVDAWGQGTTVTVSS VL: DIVMTQSPLSLPVTPGEPASISCQASQELVHMNRNTYLHWYQQKPGQAPRLLIYKVSNRFPGVPDRFSGSGSGTDFTLKISRVEAEDVGVYYCAQGTSVPFTFGQGTKLEIK | 0.012 | 35400 | 0.0196 | 3470 |  |  | 5.66 |
